In patent publication US20210246166A1 (Bayer, published 2021):
Bridge positions count the residues as written; N and C are the ends. Square brackets hold non-standard residues; d marks the D form. Ends that are not written are not given here. Pro(cis-4-CF3) = O=C(O)[C@@H]1C[C@H](C(F)(F)F)CN1; Oic = O=C(O)[C@@H]1C[C@@H]2CCCC[C@@H]2N1; PEG8 = NCCOCCOCCOCCOCCOCCOCCOCCOCCC(=O)O; Phe(2-Br) = N[C@@H](Cc1ccccc1Br)C(=O)O; NMeI = CC[C@H](C)[C@H](NC)C(=O)O; tBuAla = CC(C)(C)C[C@H](N)C(=O)O; Pen = CC(C)(S)[C@H](N)C(=O)O; NMeC = CN[C@@H](CS)C(=O)O; Orn = NCCC[C@H](N)C(=O)O; Abu = CC[C@H](N)C(=O)O; Sar = CNCC(=O)O

T1: recombinant rat MASP1 active protease (amino acids 302-704, C-terminal His Tag) (rat, UniProt Q8CHN8 302-704)
T1 sequence: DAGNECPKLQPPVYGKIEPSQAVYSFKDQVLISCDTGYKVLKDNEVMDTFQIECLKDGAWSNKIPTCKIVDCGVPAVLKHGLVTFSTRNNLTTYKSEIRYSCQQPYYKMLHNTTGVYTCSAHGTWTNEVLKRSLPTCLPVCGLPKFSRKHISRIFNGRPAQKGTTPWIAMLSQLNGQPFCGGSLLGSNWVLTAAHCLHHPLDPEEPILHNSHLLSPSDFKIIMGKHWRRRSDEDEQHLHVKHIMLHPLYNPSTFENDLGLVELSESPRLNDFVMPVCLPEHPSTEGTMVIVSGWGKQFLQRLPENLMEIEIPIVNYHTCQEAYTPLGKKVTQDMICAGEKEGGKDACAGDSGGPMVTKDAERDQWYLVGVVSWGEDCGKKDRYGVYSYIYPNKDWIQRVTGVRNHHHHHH


Target: T1, recombinant rat MASP1 active protease …
Test: cell-based or functional assay

Row | Binder | rat MASP1 IC50 [nM]
1 | [Abu]ICSRS[tBuAla]PPICIPD-NH2 (disulfide 3-11; N-terminus assumed; SMILES CC[C@H](N)C(=O)N[C@H](C(=O)N[C@H]1CSSC[C@@H](C(=O)N[C@H](C(=O)N2CCC[C@H]2C(=O)N[C@@H](CC(=O)O)C(N)=O)[C@@H](C)CC)NC(=O)[C@H]([C@@H](C)CC)NC(=O)[C@@H]2CCCN2C(=O)[C@@H]2CCCN2C(=O)[C@H](CC(C)(C)C)NC(=O)[C@H](CO)NC(=O)[C@H](CCCNC(=N)N)NC(=O)[C@H](CO)NC1=O)[C@@H](C)CC) [Example 66: (Abu)-IC+SRS-((tBu)A)-PPIC+IPD-NH2] | 70
2 | KICSRS[tBuAla]PPI[NMeC]I-NH2 (disulfide 3-11; N-terminus assumed; SMILES CC[C@H](C)[C@H](NC(=O)[C@@H]1CSSC[C@H](NC(=O)[C@@H](NC(=O)[C@@H](N)CCCCN)[C@@H](C)CC)C(=O)N[C@@H](CO)C(=O)N[C@@H](CCCNC(=N)N)C(=O)N[C@@H](CO)C(=O)N[C@@H](CC(C)(C)C)C(=O)N2CCC[C@H]2C(=O)N2CCC[C@H]2C(=O)N[C@@H]([C@@H](C)CC)C(=O)N1C)C(N)=O) [Example 79: KIC+SRS-((tBu)A)-PPI-((N-Me)C)+I-NH2] | 85
3 | [Orn]ICSRS[tBuAla]PPI[NMeC]IPD-NH2 (disulfide 3-11; N-terminus assumed; SMILES CC[C@H](C)[C@H](NC(=O)[C@@H](N)CCCN)C(=O)N[C@H]1CSSC[C@@H](C(=O)N[C@H](C(=O)N2CCC[C@H]2C(=O)N[C@@H](CC(=O)O)C(N)=O)[C@@H](C)CC)N(C)C(=O)[C@H]([C@@H](C)CC)NC(=O)[C@@H]2CCCN2C(=O)[C@@H]2CCCN2C(=O)[C@H](CC(C)(C)C)NC(=O)[C@H](CO)NC(=O)[C@H](CCCNC(=N)N)NC(=O)[C@H](CO)NC1=O) [Example 77: (Orn)-IC+SRS-((tBu)A)-PPI-((N-Me)C)+IPD-NH2] | 66
4 | Ac-G[NMeI]CSRSLPPICIPD-OH (disulfide 3-11; SMILES CC[C@H](C)[C@@H]1NC(=O)[C@@H]2CCCN2C(=O)[C@@H]2CCCN2C(=O)[C@H](CC(C)C)NC(=O)[C@H](CO)NC(=O)[C@H](CCCNC(=N)N)NC(=O)[C@H](CO)NC(=O)[C@@H](NC(=O)[C@H]([C@@H](C)CC)N(C)C(=O)CNC(C)=O)CSSC[C@@H](C(=O)N[C@H](C(=O)N2CCC[C@H]2C(=O)N[C@@H](CC(=O)O)C(=O)O)[C@@H](C)CC)NC1=O) [Example 59: Ac-G-((N-Me)I)-C+SRSLPPIC+IPD-OH] | 250
5 | AICSRS[tBuAla]PPI[NMeC]IPD-OH (disulfide 3-11; N-terminus assumed; SMILES CC[C@H](C)[C@H](NC(=O)[C@H](C)N)C(=O)N[C@H]1CSSC[C@@H](C(=O)N[C@H](C(=O)N2CCC[C@H]2C(=O)N[C@@H](CC(=O)O)C(=O)O)[C@@H](C)CC)N(C)C(=O)[C@H]([C@@H](C)CC)NC(=O)[C@@H]2CCCN2C(=O)[C@@H]2CCCN2C(=O)[C@H](CC(C)(C)C)NC(=O)[C@H](CO)NC(=O)[C@H](CCCNC(=N)N)NC(=O)[C@H](CO)NC1=O) [Example 86: AIC+SRS-((tBu)A)-PPI-((N-Me)C)+IPD-OH] | 16
6 | AICSRSLP[rel‑(1R,3R,5R,6R)‑6‑(Trifluoromethyl)‑2‑azabicyclo(3.1.0)hexane‑3‑carboxylic acid]ICIPD-NH2 (disulfide 3-11) | 140
7 | AICSRS[tBuAla]P[Oic]I[Pen]IPD-NH2 (disulfide 3-11; N-terminus assumed; SMILES CC[C@H](C)[C@H](NC(=O)[C@H](C)N)C(=O)N[C@H]1CSSC(C)(C)[C@@H](C(=O)N[C@H](C(=O)N2CCC[C@H]2C(=O)N[C@@H](CC(=O)O)C(N)=O)[C@@H](C)CC)NC(=O)[C@H]([C@@H](C)CC)NC(=O)[C@@H]2C[C@@H]3CCCC[C@@H]3N2C(=O)[C@@H]2CCCN2C(=O)[C@H](CC(C)(C)C)NC(=O)[C@H](CO)NC(=O)[C@H](CCCNC(=N)N)NC(=O)[C@H](CO)NC1=O) [Example 108: AIC+SRS-((tBu)A)-P-(Oic)-I-(Pen)+IPD-NH2] | 11
8 | AICSRS[Phe(2-Br)]PPI[Pen]IPD-NH2 (disulfide 3-11; N-terminus assumed; SMILES CC[C@H](C)[C@H](NC(=O)[C@H](C)N)C(=O)N[C@H]1CSSC(C)(C)[C@@H](C(=O)N[C@H](C(=O)N2CCC[C@H]2C(=O)N[C@@H](CC(=O)O)C(N)=O)[C@@H](C)CC)NC(=O)[C@H]([C@@H](C)CC)NC(=O)[C@@H]2CCCN2C(=O)[C@@H]2CCCN2C(=O)[C@H](Cc2ccccc2Br)NC(=O)[C@H](CO)NC(=O)[C@H](CCCNC(=N)N)NC(=O)[C@H](CO)NC1=O) [Example 104: AIC+SRS-((2-Bromo)F)-PPI-(Pen)+IPD-NH2] | 77
9 | [Orn]ICSRS[tBuAla]PPI[NMeC]IPD-NH2 (disulfide 3-11; also: HCl salt) [Example 78: (Orn)-IC+SRS-((tBu)A)-PPI-((N-Me)C)+IPD-NH2 (HCl salt)] | 48
10 | AICSRSLP[Oic]I[NMeC]IP-NH2 (disulfide 3-11; N-terminus assumed; SMILES CC[C@H](C)[C@H](NC(=O)[C@H](C)N)C(=O)N[C@H]1CSSC[C@@H](C(=O)N[C@H](C(=O)N2CCC[C@H]2C(N)=O)[C@@H](C)CC)N(C)C(=O)[C@H]([C@@H](C)CC)NC(=O)[C@@H]2C[C@@H]3CCCC[C@@H]3N2C(=O)[C@@H]2CCCN2C(=O)[C@H](CC(C)C)NC(=O)[C@H](CO)NC(=O)[C@H](CCCNC(=N)N)NC(=O)[C@H](CO)NC1=O) [Example 123: AIC+SRSLP-(Oic)-I-((N-Me)C)+IP-NH2] | 59
11 | AICSRS[tBuAla]P[Oic]ICI-NH2 (disulfide 3-11; N-terminus assumed; SMILES CC[C@H](C)[C@H](NC(=O)[C@@H]1CSSC[C@H](NC(=O)[C@@H](NC(=O)[C@H](C)N)[C@@H](C)CC)C(=O)N[C@@H](CO)C(=O)N[C@@H](CCCNC(=N)N)C(=O)N[C@@H](CO)C(=O)N[C@@H](CC(C)(C)C)C(=O)N2CCC[C@H]2C(=O)N2[C@@H](C[C@@H]3CCCC[C@@H]32)C(=O)N[C@@H]([C@@H](C)CC)C(=O)N1)C(N)=O) [Example 99: AIC+SRS-((tBu)A)-P-(Oic)-IC+I-NH2] | 220
12 | LICSRS[tBuAla]PPI[NMeC]I-NH2 (disulfide 3-11; N-terminus assumed; SMILES CC[C@H](C)[C@H](NC(=O)[C@@H]1CSSC[C@H](NC(=O)[C@@H](NC(=O)[C@@H](N)CC(C)C)[C@@H](C)CC)C(=O)N[C@@H](CO)C(=O)N[C@@H](CCCNC(=N)N)C(=O)N[C@@H](CO)C(=O)N[C@@H](CC(C)(C)C)C(=O)N2CCC[C@H]2C(=O)N2CCC[C@H]2C(=O)N[C@@H]([C@@H](C)CC)C(=O)N1C)C(N)=O) [Example 65: LIC+SRS-((tBu)A)-PPI-((N-Me)C)+I-NH2] | 7.2
13 | [Sar]ICSRS[tBuAla]PPI[Pen]IP-{PEG8-NH2} (disulfide 3-11) [Example 74: ((N-Me)G)-IC+SRS-((tBu)A)-PPI-(Pen)+IP-(PEG8(28 atoms))-NH2] | 71
14 | SICSRS[tBuAla]PPI[NMeC]I-NH2 (disulfide 3-11; N-terminus assumed; SMILES CC[C@H](C)[C@H](NC(=O)[C@@H]1CSSC[C@H](NC(=O)[C@@H](NC(=O)[C@@H](N)CO)[C@@H](C)CC)C(=O)N[C@@H](CO)C(=O)N[C@@H](CCCNC(=N)N)C(=O)N[C@@H](CO)C(=O)N[C@@H](CC(C)(C)C)C(=O)N2CCC[C@H]2C(=O)N2CCC[C@H]2C(=O)N[C@@H]([C@@H](C)CC)C(=O)N1C)C(N)=O) [Example 103: SIC+SRS-((tBu)A)-PPI-((N-Me)C)+I-NH2] | 110
15 | AICSRS[tBuAla]P[Pro(cis-4-CF3)]I[NMeC]IPD-NH2 (disulfide 3-11; N-terminus assumed; SMILES CC[C@H](C)[C@H](NC(=O)[C@H](C)N)C(=O)N[C@H]1CSSC[C@@H](C(=O)N[C@H](C(=O)N2CCC[C@H]2C(=O)N[C@@H](CC(=O)O)C(N)=O)[C@@H](C)CC)N(C)C(=O)[C@H]([C@@H](C)CC)NC(=O)[C@@H]2C[C@H](C(F)(F)F)CN2C(=O)[C@@H]2CCCN2C(=O)[C@H](CC(C)(C)C)NC(=O)[C@H](CO)NC(=O)[C@H](CCCNC(=N)N)NC(=O)[C@H](CO)NC1=O) [Example 128: AIC+SRS-((tBu)A)-P-((4-CF3)P)-I-((N-Me)C)+IPD-NH2] | 35
16 | [Sar]ICSRS[tBuAla]PPI[Pen]IP-{PEG4‑CH2CO2H (15 atoms)-NH2} (disulfide 3-11) [Example 73: ((N-Me)G)-IC+SRS-((tBu)A)-PPI-(Pen)+IP-(PEG4-CH2CO2H (15 atoms))-NH2] | 43
17 | AICSRS[tBuAla]PPI[Pen]IPD-NH2 (disulfide 3-11; N-terminus assumed; SMILES CC[C@H](C)[C@H](NC(=O)[C@H](C)N)C(=O)N[C@H]1CSSC(C)(C)[C@@H](C(=O)N[C@H](C(=O)N2CCC[C@H]2C(=O)N[C@@H](CC(=O)O)C(N)=O)[C@@H](C)CC)NC(=O)[C@H]([C@@H](C)CC)NC(=O)[C@@H]2CCCN2C(=O)[C@@H]2CCCN2C(=O)[C@H](CC(C)(C)C)NC(=O)[C@H](CO)NC(=O)[C@H](CCCNC(=N)N)NC(=O)[C@H](CO)NC1=O) [Example 98: AIC+SRS-((tBu)A)-PPI-(Pen)+IPD-NH2] | 17
